Measured values: PMC11407386, “Streptococcus suis 5’-nucleotidases contribute to adenosine-mediated immune evasion and virulence in a mouse model” (Virulence, 2024)

System: Nc1ncnc2c1ncn2[C@@H]1O[C@H](COP(=O)(O)O)[C@@H](O)[C@H]1O
Test: purified protein
Settings: 50 mM Tris-HCl, 5 mM MnCl2, pH 7.5, 37°C, 0.05 µM enzyme

Row | Substance | Km (0-2000 µM AMP) [µM] | Km (0-500 µM AMP) [µM]
1 | SntD (Streptococcus suis BM407) | 412.1 | 
2 | SntA (Streptococcus suis BM407) |  | 13.67
3 | SntC (Streptococcus suis BM407) |  | 83.7
